Reference: patent US20090124791A1

Tests used:
[1] = target: B7.1/Ig fusion protein (human) (UniProt P33681); experiment: competition of 125I-B7.1Ig binding to CD28 positive peripheral blood T lymphocytes
[2] = target: human B7.1 antigen (CD80), form not stated (human) (UniProt P33681); experiment: surface plasmon resonance
[3] = target: B7.1/Ig fusion protein (human) (UniProt P33681); experiment: cell-based or functional assay
[4] = target: human B7.1 antigen (CD80) on cells (human) (UniProt P33681); experiment: competition on B7.1 transfected CHO cells; competitor L307.4 (FIG. 8)
Chain of human B7.1 antigen (CD80) on cells (human) (P33681 35-288): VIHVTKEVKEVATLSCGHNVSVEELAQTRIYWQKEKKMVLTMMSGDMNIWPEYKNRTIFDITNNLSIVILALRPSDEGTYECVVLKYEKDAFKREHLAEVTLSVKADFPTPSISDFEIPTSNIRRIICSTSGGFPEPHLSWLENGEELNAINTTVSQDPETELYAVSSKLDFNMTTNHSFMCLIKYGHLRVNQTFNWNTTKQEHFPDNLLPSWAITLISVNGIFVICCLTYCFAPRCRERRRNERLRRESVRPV

Chain of B7.1/Ig fusion protein (human) (P33681 35-242): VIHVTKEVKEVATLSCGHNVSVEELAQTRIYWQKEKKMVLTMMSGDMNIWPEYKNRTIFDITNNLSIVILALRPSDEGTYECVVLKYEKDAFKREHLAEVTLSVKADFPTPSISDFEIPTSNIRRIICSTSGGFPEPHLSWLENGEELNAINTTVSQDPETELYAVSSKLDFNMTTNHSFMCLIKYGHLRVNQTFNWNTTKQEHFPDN
Chain of human B7.1 antigen (CD80), form not stated (human) (P33681 35-242 limits assumed): as the sequence (P33681 35-242) above

IC50 [1]	Kd [2]	concentration for equivalent blocking of IL-2 against CTLA-4Ig, beads anti-CD3/B7 8:1 [3]	inhibition of IL-2, CD4+ T cells with anti-CD3/B7-Ig beads (8:1) [3]	cross-reactivity (competition) with L307.4 [4]	Substance
< 1 µg/mL	4 nM	10 fold	50 to 90%		primatized 16C10 (IDEC-114) (antibody)
				50%	BB-1 murine anti-B7 antibody
